System: MS2 coat protein
Assay: apparent KD of MS2 coat protein; designed switch direction (-1 OFF switch, 1 ON switch): 1; higher = weaker reporter binding
Procedure, shortened: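 Apparent KD, taken as the median over clusters for each design, was obtained by curve-fitting normalised cluster fluorescence. Designed RNA switches had been transcribed on Illumina chips by stalled E. coli RNA polymerase and titrated with SNAP-549-labelled MS2 coat protein, doubling from 0.7 or 1.5 nM to 3 µM.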

[1] = input ligand: microRNA oligo, concentration not stated
[2] = Eterna round: R95, input ligand: FMN 200 uM
[3] = Eterna round: R95, input ligand: microRNA oligo, concentration not stated
[4] = Eterna round: R95, input ligand: none

AGGUUCCUGCUAGGAUAUCUAGGAUAUGGACGAGGAUUACCCGAGCAGGAUUACCGCACCAGAGGAGAGAAGGAGCAACAAGAG [pwkr ssNG2 2F5 2FMN.14] (Eterna round: R96, puzzle: Same State NG 2)
apparent KD of MS2 coat protein (input ligand: FMN 200 uM): 1740 nM
apparent KD of MS2 coat protein [1]: 370 nM
apparent KD of MS2 coat protein (input ligand: none): 160 nM

GUAGCAUACCGAGGAUAUUCAUACAUGAGGAUCACCCAUGUUUAGGCCAGCAUUAGCUGGCCUUGGGAGAAGGCGGAAUGCUAC [Xeonanis - 20 Mod54] (Eterna round: R96, puzzle: Same State NG 2)
apparent KD of MS2 coat protein (input ligand: FMN 200 uM): 17.7 nM
apparent KD of MS2 coat protein [1]: 13.5 nM
apparent KD of MS2 coat protein (input ligand: none): 22.6 nM

GGAGAACAUGAGGAUCACCCAUGUGGAUGGGCGCUAGGAUAUGCGAGAGGGUGAAGAGAAGCAGAAGGAGUGGAUA [JR_SS1_Sub036] (puzzle: Same State 1)
apparent KD of MS2 coat protein [2]: 101 nM
apparent KD of MS2 coat protein [3]: 104 nM
apparent KD of MS2 coat protein [4]: 161 nM

CUGUAUCGCGGAGGAUAUGGGCUGAGACCAGGACAACCCUGGUCAACAUGAGGAUCACCCAUGUCCCAGAAGGCCGCGAUGCUA [Zazalaonor] (Eterna round: R96, puzzle: Same State NG 2)
apparent KD of MS2 coat protein (input ligand: FMN 200 uM): 16.1 nM
apparent KD of MS2 coat protein [1]: 97.3 nM
apparent KD of MS2 coat protein (input ligand: none): 108 nM

GGUCCAGCCUGAGCUGGACAAAAGCAUGUACAUGAGGAUCACCCAUGUUCAUGUACAAGCUUUUUGCUCGUCUUAUA [salish99_208a_r3_045] (puzzle: Sensor for hsa-mir-208a)
apparent KD of MS2 coat protein [2]: 542 nM
apparent KD of MS2 coat protein [3]: 15.4 nM
apparent KD of MS2 coat protein [4]: 696 nM

UUAACAUGAGGAUCACCCAUGUAUACGUAGUUUGCAUUUUGACAGGAUAUUGUUUAUCUAUAUAGCAAGAAGGGUCGUUAGUCU [JR_SSNG3_Sub009] (Eterna round: R96, puzzle: Same State NG 3)
apparent KD of MS2 coat protein (input ligand: FMN 200 uM): 27 nM
apparent KD of MS2 coat protein [1]: 31.8 nM
apparent KD of MS2 coat protein (input ligand: none): 41.9 nM

UUAUUAUUUACAUGAGGAUCACCCAUGUUUUUAUGUCAGAGACAGGAUAUAGAAGUCUCGUUUUACUAGAAGGGUCUUUUUAUU [JR_SSNG3_Sub016] (Eterna round: R96, puzzle: Same State NG 3)
apparent KD of MS2 coat protein (input ligand: FMN 200 uM): 22 nM
apparent KD of MS2 coat protein [1]: 17.1 nM
apparent KD of MS2 coat protein (input ligand: none): 22 nM

AUAAUUAAUGCAGGAUAUGAUUAACAUGAGGAUCACCCAUGUGGUGUUGUGAGUAAGGAGAGUGAUCAGAAGGGCAUUUUUUUU [JMF's solution 33] (Eterna round: R96, puzzle: Same State NG 2)
apparent KD of MS2 coat protein (input ligand: FMN 200 uM): 666 nM
apparent KD of MS2 coat protein [1]: 298 nM
apparent KD of MS2 coat protein (input ligand: none): 343 nM

GUAGCAUACCGAGGAUAUUCAUACAUGAGGAUCACCCAUGUUUAAUUAUAGGCCAAAAGGCCUUGGGAGAAGGCGGAAUGCUAC [Xeonanis - 20 Mod14] (Eterna round: R96, puzzle: Same State NG 2)
apparent KD of MS2 coat protein (input ligand: FMN 200 uM): 8.39 nM
apparent KD of MS2 coat protein [1]: 10.1 nM
apparent KD of MS2 coat protein (input ligand: none): 14.4 nM

CGUUCAUACUCAGGACGGAGAGUAGAGGAACAUGAGGAUCACCCAUGUAUGAGCUUUUUGCUCGUCAUGAACAGGAG [JR_SHM208a_Sub011] (puzzle: Sensor for hsa-mir-208a)
apparent KD of MS2 coat protein [2]: 103 nM
apparent KD of MS2 coat protein [3]: 72.2 nM
apparent KD of MS2 coat protein [4]: 117 nM

CUGAGCGAUUAAGGAUAUCACGUCGUUUAGACGUGAGAAGGUGAUCAUAACAUGAGGAUCACCCAUGUAUUACAUGAAGCUCAG [SSNG1/3-A3] (Eterna round: R96, puzzle: Same State NG 1)
apparent KD of MS2 coat protein (input ligand: FMN 200 uM): 614 nM
apparent KD of MS2 coat protein [1]: 98.1 nM
apparent KD of MS2 coat protein (input ligand: none): 128 nM

AGUCCAGCCUGAGCUGGACAAAAGCAUGUACAUGAGGAUCACCCAUGUUCAUGUACAAGCUUUUUGUUCGUCUUAAA [Zipper 52 - 9] (puzzle: Sensor for hsa-mir-208a)
apparent KD of MS2 coat protein [2]: 179 nM
apparent KD of MS2 coat protein [3]: 11 nM
apparent KD of MS2 coat protein [4]: 431 nM

UGUUAACAUGAGGAUCACCCAUGUCAAAUGAAGCGAGGAUAUGGAAAGUAAUAAGAUGAACUAGAAGGUGUAGAUG [Altered State 1-21 - Jieux - Same State 1] (puzzle: Same State 1)
apparent KD of MS2 coat protein [2]: 40.5 nM
apparent KD of MS2 coat protein [3]: 48.4 nM
apparent KD of MS2 coat protein [4]: 52.8 nM

AGUCCAGCCUGAGCUGGACAAAAGCAUGUACAUGAGGAUCACCCAUGUCAUGUACAAGCUUUUUGCUAGUCUUAAAA [Mat - hsa-mir-208a - Mod of JL - D12] (puzzle: Sensor for hsa-mir-208a)
apparent KD of MS2 coat protein [2]: 413 nM
apparent KD of MS2 coat protein [3]: 13.7 nM
apparent KD of MS2 coat protein [4]: 551 nM

AAUUAAGAUCUAGGAUAUCACGUCGAAUAGACGUGAGAAGGAGAUCAUAACAUGAGGAUCACCCAUGUAUUACAUGAAUUAAUU [SSNG1/6-B1] (Eterna round: R96, puzzle: Same State NG 1)
apparent KD of MS2 coat protein (input ligand: FMN 200 uM): 28 nM
apparent KD of MS2 coat protein [1]: 21.6 nM
apparent KD of MS2 coat protein (input ligand: none): 28.4 nM

UUGAUUAGAAGUUAACAUGAGGAUCACCCAUGUAUUGGAUCAGAGGAUAUGCAUGUUUGAUAGUAGCAGAAGGCUGAUGGUGGA [JR_SSNG3_Sub026] (Eterna round: R96, puzzle: Same State NG 3)
apparent KD of MS2 coat protein [1]: 39.8 nM

GGAGAACAUGAGGAUCACCCAUGUGGAUGGGCGCUAGGAUAUGCGAGAGGGUGAAGAGAAGCAGAAGGAGUGGAUA [JR_SS1_Sub036] (Eterna round: R96, puzzle: Same State 1)
apparent KD of MS2 coat protein (input ligand: FMN 200 uM): 130 nM
apparent KD of MS2 coat protein [1]: 96.6 nM
apparent KD of MS2 coat protein (input ligand: none): 147 nM

UGGUACAUGGGAGGAUAUCUCAUGGAGACAUGAGGAUCACCCAUGUAGUUGGACCGGAAACGGUGAGAGAAGGCCCAUGUACCU [JL SSNG1 3.72] (Eterna round: R96, puzzle: Same State NG 2)
apparent KD of MS2 coat protein (input ligand: FMN 200 uM): 30.2 nM
apparent KD of MS2 coat protein [1]: 52.8 nM
apparent KD of MS2 coat protein (input ligand: none): 59.6 nM

GUAGCAUACCGAGGAUAUUCAUAUACAUGAGGAUCACCCAUGUUUAUAUAGGCCAAAAGGCCUUGGGAGAAGGCGGAAUGCUAC [Xeonanis - 20 Mod10] (Eterna round: R96, puzzle: Same State NG 2)
apparent KD of MS2 coat protein (input ligand: FMN 200 uM): 12.1 nM
apparent KD of MS2 coat protein [1]: 7.88 nM
apparent KD of MS2 coat protein (input ligand: none): 13 nM

ACGCCCUCAGUAGGAUAUGGGAAAGGAAGUGUACCAGAAGGACUGGUUGAACAUGAGGAUCACCCAUGUUCAACGACAGGGCGA [PowerStrip SSNG 1.25] (Eterna round: R96, puzzle: Same State NG 1)
apparent KD of MS2 coat protein (input ligand: FMN 200 uM): 18.9 nM
apparent KD of MS2 coat protein [1]: 14 nM
apparent KD of MS2 coat protein (input ligand: none): 22.8 nM

CUCGUAUCGGGAGGAUAUGGUGCCUUGUUGGUGCUAGAAGGUCCAACAUGAGGAUCACCCAUGUGCGAGUGGUUGAGAGACCGG [SS NG10LRO15] (Eterna round: R96, puzzle: Same State NG 1)
apparent KD of MS2 coat protein (input ligand: FMN 200 uM): 336 nM
apparent KD of MS2 coat protein [1]: 230 nM
apparent KD of MS2 coat protein (input ligand: none): 399 nM

GGUACUAUCACAGGAUAUGCUAUCCUUUGGGUAGCAGAAGGGUGGUACAUGAGGAUCACCCAUGUGGUGCCAGGGCGUGAGCCC [JL SSNG1 1.97] (Eterna round: R96, puzzle: Same State NG 1)
apparent KD of MS2 coat protein (input ligand: FMN 200 uM): 200 nM
apparent KD of MS2 coat protein [1]: 67.9 nM
apparent KD of MS2 coat protein (input ligand: none): 318 nM

AAUUAAGAUCGAGGAUAUCACGUCGAUUAGACGUGAGAAGGCGAUCAUAACAUGAGGAUCACCCAUGUAUUACAUGAAUUAAUU [SSNG1/4-B2] (Eterna round: R96, puzzle: Same State NG 1)
apparent KD of MS2 coat protein (input ligand: FMN 200 uM): 33.4 nM
apparent KD of MS2 coat protein [1]: 26.7 nM
apparent KD of MS2 coat protein (input ligand: none): 36.6 nM

AUUAUACAUGAGGAUCACCCAUGUAAUUAAUUAAUUAAGAUCUAGGAUAUCAGCUCGAUUAGAGCUGAGAAGGAGAUCACAUGU [SSNG3/20-C2] (Eterna round: R96, puzzle: Same State NG 3)
apparent KD of MS2 coat protein [1]: 21.2 nM

AGUCCAGCGAAAGCUGGACAAAAGUAUGUACAUGAGGAUCACCCAUGUUCAUGUACAAGCUUUUUGCUCGUUUUAAA [JL mod - D95 - 19] (puzzle: Sensor for hsa-mir-208a)
apparent KD of MS2 coat protein [2]: 814 nM
apparent KD of MS2 coat protein [3]: 48.1 nM
apparent KD of MS2 coat protein [4]: 928 nM

AGUCCAGCCAGAGCUGGACAAAAGCAUGUACAUGAGGAUCACCCAUGUUCAUGUACAAGCUUUUUGCUCGUCUUAAU [Mat - hsa-mir-208a - Mod of JL - 59] (Eterna round: R96, puzzle: Sensor for hsa-mir-208a)
apparent KD of MS2 coat protein (input ligand: FMN 200 uM): 620 nM
apparent KD of MS2 coat protein [1]: 15.3 nM
apparent KD of MS2 coat protein (input ligand: none): 583 nM

UUAGAAUUGCAAGGAUAUCUAAUUUAGAUAGUAAGAGAAGGUGCUUGAUAGUUACAUGAGGAUCACCCAUGUUUUUGGGUUUAU [JR_SSNG1_Sub058] (Eterna round: R96, puzzle: Same State NG 1)
apparent KD of MS2 coat protein [1]: 416 nM

UGGUACAUGGGAGGAUAUCCUCAGGAGACAUGAGGAUCACCCAUGUAAUAUAAGCCGAAAGGCAUGGAGAAGGCCCAUGUACCU [JL SSNG1 3.81] (Eterna round: R96, puzzle: Same State NG 2)
apparent KD of MS2 coat protein (input ligand: FMN 200 uM): 27.6 nM
apparent KD of MS2 coat protein [1]: 150 nM
apparent KD of MS2 coat protein (input ligand: none): 167 nM

CACGCCUCGGUAGGAUAUGAGGUGCCAUAGGCAACAGCCUAUGGACAUGAGGAUCACCCAUGUCCUCAGAAGGGCCAGGCGUGA [Rexeorar] (Eterna round: R96, puzzle: Same State NG 2)
apparent KD of MS2 coat protein (input ligand: FMN 200 uM): 25.9 nM
apparent KD of MS2 coat protein [1]: 66.3 nM
apparent KD of MS2 coat protein (input ligand: none): 114 nM

UUGAAGAAUUAAGGAUAUUGAGUACAUAUGUUAAACAUGAGGAUCACCCAUGUGGGUUGCGGUAUCGAGAAGGUAAAUUACUAG [Mat - same State NG 2 - JL mod - D68] (Eterna round: R96, puzzle: Same State NG 2)
apparent KD of MS2 coat protein (input ligand: FMN 200 uM): 90.9 nM
apparent KD of MS2 coat protein [1]: 46.8 nM
apparent KD of MS2 coat protein (input ligand: none): 70.8 nM

CCGAUGAUAGGACAGGAUAUGACUGUCGUCACAUGAGGAUCACCCAUGUCCCGGCAAUGCCACCGUUAGAAGGGUCCUAUCUCGG [Orraais] (puzzle: Same State 2)
apparent KD of MS2 coat protein [3]: 11.9 nM

— the supplement of paper PMC9170038
